Laboratory results as given in article PMC10281526, “Polydom/SVEP1 binds to Tie1 and promotes migration of lymphatic endothelial cells” (The Journal of Cell Biology, 2023).

B1: recombinant Tie1 extracellular domain, Fc fusion protein [not stated] / GST fusion protein of the 20th CCP domain of Polydom [mouse] (parent complex)
chain 1: AVDLTLLANLRLTDPQRFFLTCVSGEAGAGRGSDAWGPPLLLEKDDRIVRTPPGPPLRLARNGSHQVTLRGFSKPSDLVGVFSCVGGAGARRTRVIYVHNSPGAHLLPDKVTHTVNKGDTAVLSARVHKEKQTDVIWKSNGSYFYTLDWHEAQDGRFLLQLPNVQPPSSGIYSATYLEASPLGSAFFRLIVRGCGAGRWGPGCTKECPGCLHGGVCHDHDGECVCPPGFTGTRCEQACREGRFGQSCQEQCPGISGCRGLTFCLPDPYGCSCGSGWRGSQCQEACAPGHFGADCRLQCQCQNGGTCDRFSGCVCPSGWHGVHCEKSDRIPQILNMASELEFNLETMPRINCAAAGNPFPVRGSIELRKPDGTVLLSTKAIVEPEKTTAEFEVPRLVLADSGFWECRVSTSGGQDSRRFKVNVKVPPVPLAAPRLLTKQSRQLVVSPLVSFSGDGPISTVRLHYRPQDSTMDWSTIVVDPSENVTLMNLRPKTGYSVRVQLSRPGEGGEGAWGPPTLMTTDCPEPLLQPWLEGWHVEGTDRLRVSWSLPLVPGPLVGDGFLLRLWDGTRGQERRENVSSPQARTALLTGLTPGTHYQLDVQLYHCTLLGPASPPAHVLLPPSGPPAPRHLHAQALSDSEIQLTWKHPEALPGPISKYVVEVQVAGGAGDPLWIDVDRPEETSTIIRGLNASTRYLFRMRASIQGLGDWSNTVEESTLGNGLQAEGPVQESRAAEEGLDQ
chain 2: IHCSDPQPIENGFVEGADYRYGAMIIYSCFPGFQVLGHAMQTCEESGWSSSSPTCVP

Variants of: B1
Test: solid-phase binding assay; parent: 1.25; read off a plot

Row | Variant | response
1 | chain 2 D18A | ~1.1 A490
2 | chain 2 A17G | ~0.93 A490
3 | chain 2 Y21A | ~1.4 A490
4 | chain 2 R20A | ~1.3 A490
5 | chain 2 E15A | ~0.04 A490
6 | chain 2 G16A | ~0.07 A490
7 | chain 2 I26A | ~1.3 A490
8 | chain 2 G22A | ~1.1 A490
9 | chain 2 A23G | ~1.4 A490
10 | chain 2 M24A | ~1.2 A490
11 | chain 2 Y19A | ~1.4 A490
12 | chain 2 I25A | ~0.6 A490
13 | chain 2 V14A | ~0.53 A490
